This note sets out measurements from the RNAGym collection of RNA variant scans (doi:10.1073/pnas.2313332121).

Sequences and labels used below:
B1: TPR t1 (parent)
chain: GACCAAUCUGCCCUCAGAGCUCGAGAACAUCUUCGGAUGCAGAGGAGGCAGGCUUCGGUGGCGCGAUAGCGCCAACGUCCUCAACCUCCAAUGCAUCCCACCACAUGAUGAUGCCUGAAGAGCCUUGGUUUUUUG

Variants of B1 are the subject of the data set. The data set is described as follows: polymerase ribozyme fitness, log enrichment relative to wild type (log ratio); higher = more active; in vitro selection for triplet polymerase activity. A digest of the protocol:
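A single round of triplicate in vitro selection, including frozen incubation at −7 °C, was applied to PCR-built, transcribed mutant libraries of each subunit of a heterodimeric triplet polymerase ribozyme. Illumina sequencing of input and output libraries retained genotypes with ≥10 input reads and ≥1 read per output. Fitness is the base-2 logarithm of genotype enrichment divided by wild-type enrichment, from inverse-variance-weighted replicate averages.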
In the case of C8U G57U U112A, the “polymerase ribozyme fitness (log ratio)” value worked out at 1.64.

For the variant C8G C98A C102A C115A, the “polymerase ribozyme fitness (log ratio)” value was -3.34.

As to C8A G44A G57A G77A G110U C123U, the “polymerase ribozyme fitness (log ratio)” value is -4.41.

Turning to C8U C12A G42A C70U U92A, the “polymerase ribozyme fitness (log ratio)” value was -4.6.

Regarding C8G U9G, the “polymerase ribozyme fitness (log ratio)” value turned out to be 0.256.

Turning to C8G C115A, the “polymerase ribozyme fitness (log ratio)” value is 0.863.

Regarding C8A G69U C88G G128C, the “polymerase ribozyme fitness (log ratio)” value was -3.18.

Consider C8U C73A C88G, for which the “polymerase ribozyme fitness (log ratio)” value was -1.06.

C8G C114A: the “polymerase ribozyme fitness (log ratio)” value worked out at 0.0806.

On to C8A G35A C89U G117C, for which the “polymerase ribozyme fitness (log ratio)” value is -6.27.

Regarding C8U G58A G110A, the “polymerase ribozyme fitness (log ratio)” value was -1.27.

C8U C28G: the “polymerase ribozyme fitness (log ratio)” value was -1.19.

For the variant C8G C73U C86U, the “polymerase ribozyme fitness (log ratio)” value worked out at 0.186.

Turning to C8A A37U C104A, the “polymerase ribozyme fitness (log ratio)” value is -1.64.

C8A G42A C62A C114U: the “polymerase ribozyme fitness (log ratio)” value was -2.59.

As for C8U A46G, the “polymerase ribozyme fitness (log ratio)” value was -0.00753.

C8U A46U: the “polymerase ribozyme fitness (log ratio)” value is -0.626.

On to C8A C70G, for which the “polymerase ribozyme fitness (log ratio)” value was -1.76.

For the variant C8G G17C C53U, the “polymerase ribozyme fitness (log ratio)” value was -2.9.

Consider C8A U14C G93U, for which the “polymerase ribozyme fitness (log ratio)” value is -0.798.

C8G A37U C49U U54G U133G: the “polymerase ribozyme fitness (log ratio)” value is -1.23.

With C8G U14C G45A A84G, the “polymerase ribozyme fitness (log ratio)” value was -0.446.

C8G C15U A46C C72U G93A G110A: the “polymerase ribozyme fitness (log ratio)” value was -2.41.

Turning to C8U A26U U59G, the “polymerase ribozyme fitness (log ratio)” value is -2.5.

On to C8G C12G G60U G93A, for which the “polymerase ribozyme fitness (log ratio)” value was -0.276.

As for C8G U30C C70U G113C U133A, the “polymerase ribozyme fitness (log ratio)” value is -5.26.

On to C8G G60U C102U, for which the “polymerase ribozyme fitness (log ratio)” value is -0.641.

As for C8U C82U U116G G117A, the “polymerase ribozyme fitness (log ratio)” value was 0.198.

Take C8G A46U C104A U106C U116C: the “polymerase ribozyme fitness (log ratio)” value is -3.35.

For the variant C8U A27G C82A, the “polymerase ribozyme fitness (log ratio)” value is -1.59.

On to C8G C73U A91G C101G, for which the “polymerase ribozyme fitness (log ratio)” value is -2.3.

On to C8G G39U C70U U78A, for which the “polymerase ribozyme fitness (log ratio)” value is -0.697.

With C8G C11U C82A U112A, the “polymerase ribozyme fitness (log ratio)” value came to 0.802.

For C8U C62U C79U C82U A91U A105G C123G U129G U131G, the “polymerase ribozyme fitness (log ratio)” value was -5.84.

As for C8G A18U G44U G47A C102A G120A A121C C124U, the “polymerase ribozyme fitness (log ratio)” value was -6.31.

Regarding C8A C34G G110C U129G, the “polymerase ribozyme fitness (log ratio)” value is -8.1.

As to C8A C22G C31U G36C G61C, the “polymerase ribozyme fitness (log ratio)” value is -6.63.

With C8G C80G, the “polymerase ribozyme fitness (log ratio)” value is -4.19.

As to C8G U14A U55G C73G C97A, the “polymerase ribozyme fitness (log ratio)” value is -4.31.

On to C8A G61U A83C A100C, for which the “polymerase ribozyme fitness (log ratio)” value was -0.341.

Consider C8G U96C C104U, for which the “polymerase ribozyme fitness (log ratio)” value was found to be 0.578.

For C8U C62A C98U, the “polymerase ribozyme fitness (log ratio)” value is -1.15.

For C8U C124A, the “polymerase ribozyme fitness (log ratio)” value came out at 2.27.

Turning to C8U C124U, the “polymerase ribozyme fitness (log ratio)” value stood at 1.6.

In the case of C8G C31A A41U C73G U112A, the “polymerase ribozyme fitness (log ratio)” value was -6.12.

On to C8U G48C C56A, for which the “polymerase ribozyme fitness (log ratio)” value is -0.762.

Regarding C8G C15G, the “polymerase ribozyme fitness (log ratio)” value was -1.24.

For C8U A24G G36A G44U, the “polymerase ribozyme fitness (log ratio)” value was -2.87.

As for C8U G52U C86A, the “polymerase ribozyme fitness (log ratio)” value was -1.28.

C8U C13A A18C U54G C70U: the “polymerase ribozyme fitness (log ratio)” value is -3.71.

As for C8G A26U A29G, the “polymerase ribozyme fitness (log ratio)” value is -3.46.

On to C8G G19U G48A A50U U54G U96A C114A, for which the “polymerase ribozyme fitness (log ratio)” value is 0.218.

For C8G C104A, the “polymerase ribozyme fitness (log ratio)” value is -0.951.

As to C8A G45U C56U A84C A95U, the “polymerase ribozyme fitness (log ratio)” value is -1.21.

For C8G C11U U116C G120U, the “polymerase ribozyme fitness (log ratio)” value was found to be 0.747.

On to C8A U112C U125A, for which the “polymerase ribozyme fitness (log ratio)” value was 1.71.

For the variant C8G G39A G117U U132A, the “polymerase ribozyme fitness (log ratio)” value turned out to be 0.363.

In the case of C8G C12U U21G G39C, the “polymerase ribozyme fitness (log ratio)” value is -1.78.

As to C8U G19C G42U A91G C123U, the “polymerase ribozyme fitness (log ratio)” value was -0.955.

C8A A75U C85A A90C G93A: the “polymerase ribozyme fitness (log ratio)” value was -3.24.

On to C8A G35U, for which the “polymerase ribozyme fitness (log ratio)” value is -4.85.

Turning to C8A C80G C82G C88A C114U, the “polymerase ribozyme fitness (log ratio)” value was -6.78.

With C8A C76U U87A U112A A121C U133G, the “polymerase ribozyme fitness (log ratio)” value stood at 0.984.

In the case of C8G A43U U54C C72G C114A A118G, the “polymerase ribozyme fitness (log ratio)” value was -5.83.

With C8A C28G G61A, the “polymerase ribozyme fitness (log ratio)” value was -2.22.

As for C8G A111U, the “polymerase ribozyme fitness (log ratio)” value is -1.64.

For the variant C8U C22U G39U G113A G120C C123A, the “polymerase ribozyme fitness (log ratio)” value was -5.45.

Regarding C8A C34A C98G U126G, the “polymerase ribozyme fitness (log ratio)” value is -4.07.

Regarding C8U G48A A50G, the “polymerase ribozyme fitness (log ratio)” value is -1.52.

As for C8G A50G U106G G120A, the “polymerase ribozyme fitness (log ratio)” value was determined as 1.23.

C8A C64G A111G A121C U129A: the “polymerase ribozyme fitness (log ratio)” value is -6.98.

For C8G U55A, the “polymerase ribozyme fitness (log ratio)” value is 0.0363.

With C8U G44U C88G, the “polymerase ribozyme fitness (log ratio)” value is -1.96.

As to C8G U33C C64A U106A G120C, the “polymerase ribozyme fitness (log ratio)” value is -6.76.

On to C8A A37G A100C, for which the “polymerase ribozyme fitness (log ratio)” value was -0.161.

Take C8G G52A G63C C94G G113C U131G: the “polymerase ribozyme fitness (log ratio)” value was -4.64.

Regarding C8U C114G U126C, the “polymerase ribozyme fitness (log ratio)” value was -1.85.

As for C8A A24U G61U C115U G117A, the “polymerase ribozyme fitness (log ratio)” value is -7.42.

Take C8A C80U A105C U112G G120C: the “polymerase ribozyme fitness (log ratio)” value is -3.09.

Regarding C8U A29U C70U, the “polymerase ribozyme fitness (log ratio)” value is -2.36.

C8U A121U: the “polymerase ribozyme fitness (log ratio)” value amounted to 2.15.

Consider C8G G48U G58C A75U U109C G113U, for which the “polymerase ribozyme fitness (log ratio)” value was -6.98.

Consider C8G A121G, for which the “polymerase ribozyme fitness (log ratio)” value was determined as 1.62.
